What was measured:
Format in all cases: cell-based
P. aeruginosa A19 = assay: agar disc-diffusion assay; conditions: strain A19; 0.3, 3 and 30 μg of protein spotted on discs on CAA agar lawn, overnight
Description: (§1) Overnight P. aeruginosa cultures grown in CAA medium were equalized till OD595=1.0 in CAA and diluted 100×. Sterile cotton swab was briefly submerged in diluted microbial suspension, removing the excess of liquid by pressing it against the container wall. The swab was used for evenly streaking bacteria on plates containing growth medium with CAA solid agar (1.5%). 6 mm diameter sterile Whatman discs were placed on soft-agar and 0.3-30 μg of chimeric pyocins were spotted to paper disks. The plates were incubated overnight at 37° C. and bacteriocin inhibition zones were observed.
(§2) Next, all 25 P. aeruginosa strains were subjected to agar disc-diffusion assay by spotting different amounts of purified pyocin S5 (0.3 μg, 3 μg and 30 μg) on bacteria lawns. Six P. aeruginosa strains were resistant to pyocin S5. Four of these six strains were pyocin S5 and immunity protein-encoding strains—PA14, PAO1, […] and NCTC 13921. Two cystic fibrosis isolates, 12-35708 and 12-29165 were also completely resistant to pyocin S5, despite the absence of S5, or S5 immunity protein coding genes. […] Turbid inhibition zones were detected when 3 μg and 30 μg of S5 were spotted on the lawn of these strains (Table 1, FIG. 3).

[1] = test system: P. aeruginosa Boston 41501 (ATCC 27853); assay: agar disc-diffusion assay; conditions: strain Boston; 0.3, 3 and 30 μg of protein spotted on discs on CAA agar lawn, overnight
Description: as §1, §2

P. aeruginosa Pr335 = assay: agar disc-diffusion assay; conditions: strain Pr335; 0.3, 3 and 30 μg of protein spotted on discs on CAA agar lawn, overnight
Description: as §1, §2

P. aeruginosa HP40 = assay: agar disc-diffusion assay; conditions: strain HP40; 0.3, 3 and 30 μg of protein spotted on discs on CAA agar lawn, overnight
Description: as §1, §2

P. aeruginosa NCTC 13921 = assay: agar disc-diffusion assay; conditions: strain NCTC 13921; 0.3, 3 and 30 μg of protein spotted on discs on CAA agar lawn, overnight
Description: as §1, §2

P. aeruginosa HP6 = assay: agar disc-diffusion assay; conditions: strain HP6; 0.3, 3 and 30 μg of protein spotted on discs on CAA agar lawn, overnight
Description: as §1, §2

P. aeruginosa strains = assay: agar disc-diffusion assay, panel of 25 strains; conditions: panel of 25 P. aeruginosa strains, in words
Description: as §1, §2

P. aeruginosa Bu002 = assay: agar disc-diffusion assay; conditions: strain Bu002; 0.3, 3 and 30 μg of protein spotted on discs on CAA agar lawn, overnight
Description: as §1, §2

P. aeruginosa BI80 = assay: agar disc-diffusion assay; conditions: strain BI80; 0.3, 3 and 30 μg of protein spotted on discs on CAA agar lawn, overnight
Description: as §1, §2

P. aeruginosa HP1 = assay: agar disc-diffusion assay; conditions: strain HP1; 0.3, 3 and 30 μg of protein spotted on discs on CAA agar lawn, overnight
Description: as §1, §2

P. aeruginosa PAO1 = assay: agar disc-diffusion assay; conditions: strain PAO1; 0.3, 3 and 30 μg of protein spotted on discs on CAA agar lawn, overnight
Description: as §1, §2

P. aeruginosa UR78 = assay: agar disc-diffusion assay; conditions: strain UR78; 0.3, 3 and 30 μg of protein spotted on discs on CAA agar lawn, overnight
Description: as §1, §2

P. aeruginosa BL77 = assay: agar disc-diffusion assay; conditions: strain BL77; 0.3, 3 and 30 μg of protein spotted on discs on CAA agar lawn, overnight
Description: as §1, §2

P. aeruginosa HP41 = assay: agar disc-diffusion assay; conditions: strain HP41; 0.3, 3 and 30 μg of protein spotted on discs on CAA agar lawn, overnight
Description: as §1, §2

P. aeruginosa HP52 = assay: agar disc-diffusion assay; conditions: strain HP52; 0.3, 3 and 30 μg of protein spotted on discs on CAA agar lawn, overnight
Description: as §1, §2

P. aeruginosa HP7 = assay: agar disc-diffusion assay; conditions: strain HP7; 0.3, 3 and 30 μg of protein spotted on discs on CAA agar lawn, overnight
Description: as §1, §2

P. aeruginosa 13-18499 = assay: agar disc-diffusion assay; conditions: strain 13-18499; 0.3, 3 and 30 μg of protein spotted on discs on CAA agar lawn, overnight
Description: as §1, §2

P. aeruginosa ATCC 29260 = assay: agar disc-diffusion assay; conditions: strain ATCC 29260; 0.3, 3 and 30 μg of protein spotted on discs on CAA agar lawn, overnight
Description: as §1, §2

B1: S5-Pflu794: chimeric bacteriocin SEQ ID NO: 17: pyocin S5 first segment fused to P. fluorescens Pflu794 killing domain (protein)
chain: MSNDNEVPGSMVIVAQGPDDQYAYEVPPIDSAAVAGNMFGDLIQREIYLQKNIYYPVRSIFEQGTKEKKEINKKVSDQVDGLLKQITQGKREATRQERVDVMSAVLHKMESDLEGYKKTFTKGPFIDYEKQSSLSIYEAWVKIWEKNSWEERKKYPFQQLVRDELERAVAYYKQDSLSEAVKVLRQELNKQKALKEKEDLSQLERDYRTRKANLEMKVQSELDQAGSALPPLVSPTPEQWLERATRLVTQAIADKKQLQTTNNTLIKNSPTPLEKQKAIYNGELLVDEIASLQARLVKLNAETTRRRTEKASDQANNVDIEEAILFTTTFYENLTEKYGEKVSAVAKELAESAKGKTMRSSKEALQTFEKYKDTYNGRFRSRDRREVDRALKSLDKELLSKNLAKFSKAFGSVSKIGDLTEVFIELENSIRTGDWKPLLLTLEGIGLGMAGTYLVAAVFGISATTPLGIVVFAVLMAATSAYIDDDLVKKVNKDLFGF
modifications: S5-Pflu794
Activity in agar disc-diffusion assay (P. aeruginosa A19): *** (activity detected with 0.3 μg of protein)
Activity in agar disc-diffusion assay [1]: * (activity detected only with 30 μg of protein)
Activity in agar disc-diffusion assay (P. aeruginosa Pr335): ** (activity detected with 3 μg of protein)
Activity in agar disc-diffusion assay (P. aeruginosa HP40): * (activity detected only with 30 μg of protein)
Activity in agar disc-diffusion assay (P. aeruginosa NCTC 13921): * (activity detected only with 30 μg of protein)
Activity in agar disc-diffusion assay (P. aeruginosa HP6): * (activity detected only with 30 μg of protein)
activity spectrum / profile in agar disc diffusion assay (P. aeruginosa strains): only week activity on 6 tested strains

B2: S5-Pflu618: chimeric bacteriocin SEQ ID NO: 21: pyocin S5 first segment fused to P. fluorescens Pflu618 killing domain (protein)
chain: MSNDNEVPGSMVIVAQGPDDQYAYEVPPIDSAAVAGNMFGDLIQREIYLQKNIYYPVRSIFEQGTKEKKEINKKVSDQVDGLLKQITQGKREATRQERVDVMSAVLHKMESDLEGYKKTFTKGPFIDYEKQSSLSIYEAWVKIWEKNSWEERKKYPFQQLVRDELERAVAYYKQDSLSEAVKVLRQELNKQKALKEKEDLSQLERDYRTRKANLEMKVQSELDQAGSALPPLVSPTPEQWLERATRLVTQAIADKKQLQTTNNTLIKNSPTPLEKQKAIYNGELLVDEIASLQARLVKLNAETTRRRTEAEAEAKRIDDYKRAVAFVADANKYILEKYGANLHQVVMDLQKDISGKKIRSYAEAMQTFEAVRTNPNARLSPQDTRAVVDALNALDKATYMDSVNKLAKGFGVTGKIVQAHSVIEKTVIGFRDGNWKPLILELESIALGAGAGAAVATLLAVFSPGFAASAIGIVAVGVAIATIASLLNADNVEKINVFISDHLETALKEQR
modifications: S5-Pflu618
Activity in agar disc-diffusion assay (P. aeruginosa A19): *** (activity detected with 0.3 μg of protein)
Activity in agar disc-diffusion assay (P. aeruginosa Bu002): ** (activity detected with 3 μg of protein)
Activity in agar disc-diffusion assay (P. aeruginosa BI80): * (activity detected only with 30 μg of protein)
Activity in agar disc-diffusion assay (P. aeruginosa HP1): ** (activity detected with 3 μg of protein)
Activity in agar disc-diffusion assay (P. aeruginosa PAO1): ** (activity detected with 3 μg of protein)
Activity in agar disc-diffusion assay (P. aeruginosa UR78): * (activity detected only with 30 μg of protein)
Activity in agar disc-diffusion assay (P. aeruginosa BL77): * (activity detected only with 30 μg of protein)
Activity in agar disc-diffusion assay (P. aeruginosa HP41): ** (activity detected with 3 μg of protein)
Activity in agar disc-diffusion assay (P. aeruginosa HP52): * (activity detected only with 30 μg of protein)
Activity in agar disc-diffusion assay (P. aeruginosa HP7): ** (activity detected with 3 μg of protein)
Activity in agar disc-diffusion assay [1]: ** (activity detected with 3 μg of protein)
Activity in agar disc-diffusion assay (P. aeruginosa Pr335): ** (activity detected with 3 μg of protein)
Activity in agar disc-diffusion assay (P. aeruginosa HP40): ** (activity detected with 3 μg of protein)
Activity in agar disc-diffusion assay (P. aeruginosa 13-18499): * (activity detected only with 30 μg of protein)
Activity in agar disc-diffusion assay (P. aeruginosa ATCC 29260): * (activity detected only with 30 μg of protein)
Activity in agar disc-diffusion assay (P. aeruginosa NCTC 13921): * (activity detected only with 30 μg of protein)
Activity in agar disc-diffusion assay (P. aeruginosa HP6): * (activity detected only with 30 μg of protein)
activity spectrum / profile in agar disc diffusion assay (P. aeruginosa strains): weaker and less broad activity in comparison to pyocin S5
